Biological target: GST-Rho-G17A (UniProt P61586 1-193, G17A)
Assay: pull-down

Sequence of GST-Rho-G17A (P61586 whole entry G17A): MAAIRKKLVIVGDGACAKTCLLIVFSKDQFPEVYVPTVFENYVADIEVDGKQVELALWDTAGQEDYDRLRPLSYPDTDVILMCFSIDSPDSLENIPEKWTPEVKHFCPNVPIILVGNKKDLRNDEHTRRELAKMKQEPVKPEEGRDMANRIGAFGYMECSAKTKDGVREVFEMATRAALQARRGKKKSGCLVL

- fold decrease in pull down against wild-type LARG: 5 fold
B1: mCh-LARG-W769A (natural protein, UniProt Q9NZN5 1-1544, looked up)
chain: MSGTQSTITDRFPLKKPIRHGSILNRESPTDKKQKVERIASHDFDPTDSSSKKTKSSSEESRSEIYGLVQRCVIIQKDDNGFGLTVSGDNPVFVQSVKEDGAAMRAGVQTGDRIIKVNGTLVTHSNHLEVVKLIKSGSYVALTVQGRPPGSPQIPLADSEVEPSVIGHMSPIMTSPHSPGASGNMERITSPVLMGEENNVVHNQKVEILRKMLQKEQERLQLLQEDYNRTPAQRLLKEIQEAKKHIPQLQEQLSKATGSAQDGAVVTPSRPLGDTLTVSEAETDPGDVLGRTDCSSGDASRPSSDNADSPKSGPKERIYLEENPEKSETIQDTDTQSLVGSPSTRIAPHIIGAEDDDFGTEHEQINGQCSCFQSIELLKSRPAHLAVFLHHVVSQFDPATLLCYLYSDLYKHTNSKETRRIFLEFHQFFLDRSAHLKVSVPDEMSADLEKRRPELIPEDLHRHYIQTMQERVHPEVQRHLEDFRQKRSMGLTLAESELTKLDAERDKDRLTLEKERTCAEQIVAKIEEVLMTAQAVEEDKSSTMQYVILMYMKHLGVKVKEPRNLEHKRGRIGFLPKIKQSMKKDKEGEEKGKRRGFPSILGPPRRPSRHDNSAIGRAMELQKARHPKHLSTPSSVSPEPQDSAKLRQSGLANEGTDAGYLPANSMSSVASGASFSQEGGKENDTGSKQVGETSAPGDTLDGTPRTLNTVFDFPPPPLDQVQEEECEVERVTEHGTPKPFRKFDSVAFGESQSEDEQFENDLETDPPNAQQLVSREVLLGLKPCEIKRQEVINELFYTERAHVRTLKVLDQVFYQRVSREGILSPSELRKIFSNLEDILQLHIGLNEQMKAVRKRNETSVIDQIGEDLLTWFSGPGEEKLKHAAATFCSNQPFALEMIKSRQKKDSRFQTFVQDAESNPLCRRLQLKDIIPTQMQRLTKYPLLLDNIAKYTEWPTEREKVKKAADHCRQILNYVNQAVKEAENKQRLEDYQRRLDTSSLKLSEYPNVEELRNLDLTKRKMIHEGPLVWKVNRDKTIDLYTLLLEDILVLLQKQDDRLVLRCHSKILASTADSKHTFSPVIKLSTVLVRQVATDNKALFVISMSDNGAQIYELVAQTVSEKTVWQDLICRMAASVKEQSTKPIPLPQSTPGEGDNDEEDPSKLKEEQHGISVTGLQSPDRDLGLESTLISSKPQSHSLSTSGKSEVRDLFVAERQFAKEQHTDGTLKEVGEDYQIAIPDSHLPVSEERWALDALRNLGLLKQLLVQQLGLTEKSVQEDWQHFPRYRTASQGPQTDSVIQNSENIKAYHSGEGHMPFRTGTGDIATCYSPRTSTESFAPRDSVGLAPQDSQASNILVMDHMIMTPEMPTMEPEGGLDDSGEHFFDAREAHSDENPSEGDGAVNKEEKDVNLRISGNYLILDGYDPVQESSTDEEVASSLTLQPMTGIPAVESTHQQQHSPQNTHSDGAISPFTPEFLVQQRWGAMEYSCFEIQSPSSCADSQSQIMEYIHKIEADLEHLKKVEESYTILCQRLAGSALTDKHSDKS

— PMC3771942 (Molecular Biology of the Cell, 2013)
